{"source": "patent US20200270339A1", "key": {"[1]": {"molecular_target": "human IL-15 complexed with the IL-15 Receptor-alpha (human) (UniProt P40933)", "sequence (P40933 49-162 limits assumed, chain 1 of 2)": "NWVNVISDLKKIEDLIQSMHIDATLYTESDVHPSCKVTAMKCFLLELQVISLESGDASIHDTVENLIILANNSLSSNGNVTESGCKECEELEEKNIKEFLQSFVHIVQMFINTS", "sequence (chain, as listed by the source limits assumed, chain 2 of 2)": "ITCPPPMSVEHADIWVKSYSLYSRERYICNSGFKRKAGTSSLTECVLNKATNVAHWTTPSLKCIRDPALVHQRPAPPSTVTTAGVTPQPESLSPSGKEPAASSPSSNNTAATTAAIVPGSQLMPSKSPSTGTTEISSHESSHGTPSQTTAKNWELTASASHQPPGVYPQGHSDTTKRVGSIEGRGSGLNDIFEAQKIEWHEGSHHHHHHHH", "assay": "SPR, antibody captured on Protein A chip"}, "[2]": {"molecular_target": "human IL-15 complexed with the IL-15 Receptor-alpha (human) (UniProt P40933)", "assay": "SPR, antibody captured on Protein A chip, IL-15 complex as analyte"}, "[3]": {"molecular_target": "human IL-15 complexed with the IL-15 Receptor-alpha (human) (UniProt P40933)", "assay": "SPR"}, "[4]": {"molecular_target": "human IL-15 complexed with the IL-15 Receptor-alpha (human) (UniProt P40933)", "assay": "cell-based or functional assay"}}, "note": "Where “and” joins values, the source holds several entries; their conditions need not be identical. Identical values can stand only once."}
{"substance": "AMG714 (antibody)", "values": [{"measurement": "fold faster dissociation rate than from Antibody 70 variants", "setting": "[1]", "result": 10, "unit": "fold"}, {"measurement": "Kd", "setting": "[2]", "result": 1.84, "unit": "nM"}, {"measurement": "Kd", "setting": "[3]", "result": "1.86 nM and 1.82 nM"}, {"measurement": "koff", "setting": "[3]", "result": "0.000398 s⁻¹ and 0.00038 s⁻¹"}, {"measurement": "kon", "setting": "[3]", "result": "209000 M⁻¹ s⁻¹ and 214000 M⁻¹ s⁻¹"}, {"measurement": "Max IC50 (pM), NK-92 proliferation assay", "setting": "[4]", "result": 2650, "unit": "pM"}, {"measurement": "Mean IC50 (pM), NK-92 proliferation assay", "setting": "[4]", "result": 1300, "unit": "pM"}, {"measurement": "Min IC50 (pM), NK-92 proliferation assay", "setting": "[4]", "result": 378, "unit": "pM"}]}
